Laboratory results published in paper PMC12636033, “Chemical Engineering of Transcription Factors Uncovered Cell-Permeable μMax Modulators”.

Molecular target: WT Max (Homo sapiens, UniProt P61244-2 13-93, M65Nle, norleucine written as M; other non-natural residues written as X)
Experiment: PBM; 50-200 nM protein; PBS, 2% milk, BSA, salmon testes DNA, 0.02% Triton X-100
Details: chain copies: 2; label: surface-attached array probe

Sequence of WT Max (P61244 other isoform, or with tags, fused parts or gaps M65Nle): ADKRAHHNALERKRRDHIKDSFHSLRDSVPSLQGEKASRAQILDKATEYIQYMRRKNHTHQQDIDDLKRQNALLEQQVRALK

Row | Binder | binding signal
1 | dBr_Jan07_39645 (dsDNA) DNA 1: AGATCAAAACGTAAGACGACAGGCGAACTTCAGTAAGTCTGTGTTCCGTTGTCCGTGCTG DNA 2: CAGCACGGACAACGGAACACAGACTTACTGAAGTTCGCCTGTCGTCTTACGTTTTGATCT | -1.15 robust z of log adjusted intensity (ours), mean of two arrays
2 | dBr_Jan07_01315 (dsDNA) DNA 1: ATTACCTACTCAACTTACTAGGAAACACGTGCACATGTCTGTGTTCCGTTGTCCGTGCTG DNA 2: CAGCACGGACAACGGAACACAGACATGTGCACGTGTTTCCTAGTAAGTTGAGTAGGTAAT | 5.18 robust z of log adjusted intensity (ours), mean of two arrays
3 | dBr_Jan07_20877 (dsDNA) DNA 1: TAAACCTAGAGACGCTAAGAACACTTACAGGCGAGCGTCTGTGTTCCGTTGTCCGTGCTG DNA 2: CAGCACGGACAACGGAACACAGACGCTCGCCTGTAAGTGTTCTTAGCGTCTCTAGGTTTA | -1.02 robust z of log adjusted intensity (ours), mean of two arrays
4 | dBr_Jan07_16204 (dsDNA) DNA 1: ATGAACCAATCGGTCGATTAGAGATAGAGAAAGAAGGTCTGTGTTCCGTTGTCCGTGCTG DNA 2: CAGCACGGACAACGGAACACAGACCTTCTTTCTCTATCTCTAATCGACCGATTGGTTCAT | -1.46 robust z of log adjusted intensity (ours), mean of two arrays
5 | dBr_Jan07_10189 (dsDNA) DNA 1: GTTTGTGAGGTTCCTGACTCTGAGCGGACCGGTAGAGTCTGTGTTCCGTTGTCCGTGCTG DNA 2: CAGCACGGACAACGGAACACAGACTCTACCGGTCCGCTCAGAGTCAGGAACCTCACAAAC | -0.8 robust z of log adjusted intensity (ours), mean of two arrays
6 | dBr_Jan07_03145 (dsDNA) DNA 1: CCGATTTAGGAGCGGGTAAATACAGGCAGCTCTCTGGTCTGTGTTCCGTTGTCCGTGCTG DNA 2: CAGCACGGACAACGGAACACAGACCAGAGAGCTGCCTGTATTTACCCGCTCCTAAATCGG | -1.12 robust z of log adjusted intensity (ours), mean of two arrays
7 | dBr_Jan07_02776 (dsDNA) DNA 1: GACGAAGTAAGGCTAGCTTGTCGCTAAAAAGACGCAGTCTGTGTTCCGTTGTCCGTGCTG DNA 2: CAGCACGGACAACGGAACACAGACTGCGTCTTTTTAGCGACAAGCTAGCCTTACTTCGTC | -1.15 robust z of log adjusted intensity (ours), mean of two arrays
8 | dBr_Jan07_26545 (dsDNA) DNA 1: ACTGCGCCGGAGAGTTCAACGAACTACTACGTCGAAGTCTGTGTTCCGTTGTCCGTGCTG DNA 2: CAGCACGGACAACGGAACACAGACTTCGACGTAGTAGTTCGTTGAACTCTCCGGCGCAGT | -0.92 robust z of log adjusted intensity (ours), mean of two arrays
9 | dBr_Jan07_09107 (dsDNA) DNA 1: TCTCCTGTGACAATTACGCCCCCCCCAGGCGCCTACGTCTGTGTTCCGTTGTCCGTGCTG DNA 2: CAGCACGGACAACGGAACACAGACGTAGGCGCCTGGGGGGGGCGTAATTGTCACAGGAGA | -1.31 robust z of log adjusted intensity (ours), mean of two arrays
10 | dBr_Jan07_10036 (dsDNA) DNA 1: CCGCGGACAGGTTCAGCCATCCGACTGCTACGCACAGTCTGTGTTCCGTTGTCCGTGCTG DNA 2: CAGCACGGACAACGGAACACAGACTGTGCGTAGCAGTCGGATGGCTGAACCTGTCCGCGG | -0.76 robust z of log adjusted intensity (ours), mean of two arrays
11 | dBr_Jan07_36814 (dsDNA) DNA 1: GCGCAAGCCATGACCCGGTACGATTTAGAAATGGCGGTCTGTGTTCCGTTGTCCGTGCTG DNA 2: CAGCACGGACAACGGAACACAGACCGCCATTTCTAAATCGTACCGGGTCATGGCTTGCGC | -1.34 robust z of log adjusted intensity (ours), mean of two arrays
12 | dBr_Jan07_22161 (dsDNA) DNA 1: GAATTTACCCGCGCTGTTGGTCACGTGTGTGGTTTTGTCTGTGTTCCGTTGTCCGTGCTG DNA 2: CAGCACGGACAACGGAACACAGACAAAACCACACACGTGACCAACAGCGCGGGTAAATTC | 5.72 robust z of log adjusted intensity (ours), mean of two arrays
13 | dBr_Jan07_32293 (dsDNA) DNA 1: TCGCGGCTCGAAGCACCCTCCCCAGGGGCATCAGCAGTCTGTGTTCCGTTGTCCGTGCTG DNA 2: CAGCACGGACAACGGAACACAGACTGCTGATGCCCCTGGGGAGGGTGCTTCGAGCCGCGA | -0.93 robust z of log adjusted intensity (ours), mean of two arrays
